Our source for the percent dimeric and stoichiometry N values is paper PMC12143351.

The stoichiometry N is the number of molecules, sites or subunits per partner or assembly.

Where two headings read alike, the source gives them in different places.

Assay [1] concerns the target WT-nsp5_(BA.1), SARS-CoV-2 nsp5 protease of the Omicron (BA.1) strain (SARS-CoV-2 (Omicron BA.1)). Description: SEC-MALS. For orientation: SEC sorts molecules by how far they enter the pores of the column.
Assay [2] shares this target. Briefly: SEC-MALS. This is another data set of the same source.

Turning to “WT-nsp5_(BA.1), SARS-CoV-2 nsp5 protease of the Omicron (BA.1) strain (enzyme)”, the percent dimeric in assay [1] stood at 72%; in assay [2], 64%. Also, the stoichiometry N in assay [1] worked out at 2.
